Paper PMC10325916, “DNA strand asymmetry generated by CpG hemimethylation has opposing effects on CTCF binding”
Where “and” joins values, the source holds several entries; their conditions need not be identical. Equal entries are not always repeated.

Tests used:
Assay in all cases: fluorescence polarization; 20 mM Tris-HCl pH 7.5, 300 mM NaCl, 5% glycerol, 0.5 mM TCEP, 25 C, 15 min, 5 nM FAM-oligo
[1] = target: T1, CTCF FL (human, UniProt P49711 1-727); conditions: protein: recombinant; tags: 6xHis-SUMO, used tagged or removed (untagged for FL); label: FAM on motif strand
T1 sequence: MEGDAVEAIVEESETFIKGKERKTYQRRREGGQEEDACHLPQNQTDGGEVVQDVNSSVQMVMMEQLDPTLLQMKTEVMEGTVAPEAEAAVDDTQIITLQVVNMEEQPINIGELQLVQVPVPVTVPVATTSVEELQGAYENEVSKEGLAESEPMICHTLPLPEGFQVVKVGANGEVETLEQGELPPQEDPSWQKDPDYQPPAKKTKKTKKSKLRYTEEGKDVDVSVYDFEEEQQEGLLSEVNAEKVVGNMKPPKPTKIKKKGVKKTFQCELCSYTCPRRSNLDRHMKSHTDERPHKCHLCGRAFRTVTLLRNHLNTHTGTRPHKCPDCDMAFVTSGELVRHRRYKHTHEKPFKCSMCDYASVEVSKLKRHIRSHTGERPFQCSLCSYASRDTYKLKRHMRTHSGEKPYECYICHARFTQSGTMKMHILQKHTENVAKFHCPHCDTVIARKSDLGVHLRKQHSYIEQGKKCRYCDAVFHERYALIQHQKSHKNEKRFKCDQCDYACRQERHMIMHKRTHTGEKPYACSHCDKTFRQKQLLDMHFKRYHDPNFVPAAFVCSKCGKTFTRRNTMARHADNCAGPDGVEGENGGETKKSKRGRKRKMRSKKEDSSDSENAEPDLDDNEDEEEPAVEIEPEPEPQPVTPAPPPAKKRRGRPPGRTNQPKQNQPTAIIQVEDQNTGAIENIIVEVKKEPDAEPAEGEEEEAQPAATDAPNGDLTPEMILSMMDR

[2] = target: T2, CTCF ZF1-11 (human, UniProt P49711 266-577); conditions: protein: recombinant, tags: 6xHis-SUMO, used tagged and untagged (no change in results)
T2 sequence: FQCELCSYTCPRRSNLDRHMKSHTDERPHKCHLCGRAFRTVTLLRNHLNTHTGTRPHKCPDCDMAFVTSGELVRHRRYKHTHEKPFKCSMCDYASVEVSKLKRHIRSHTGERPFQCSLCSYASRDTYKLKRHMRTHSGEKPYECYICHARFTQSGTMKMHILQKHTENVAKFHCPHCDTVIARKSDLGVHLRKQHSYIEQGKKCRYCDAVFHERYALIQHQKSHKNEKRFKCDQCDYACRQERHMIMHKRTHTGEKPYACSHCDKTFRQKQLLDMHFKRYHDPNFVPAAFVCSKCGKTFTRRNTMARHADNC

[3] = target: T2, CTCF ZF1-11; conditions: protein: recombinant; tags: 6xHis-SUMO, used tagged and untagged (no change in results); label: FAM on motif strand
[4] = target: T2, CTCF ZF1-11; conditions: protein: recombinant; tags: 6xHis-SUMO, used tagged and untagged (no change in results); label: FAM on motif strand; remark: listed apart in the source

B1: Telo-CTCF (dsDNA)
DNA 1: TCCCCACCAGGGGGAGCAC
DNA 2: GTGCTCCCCCTGGTGGGGA
For B1, the Kd [1] was about 0.005 µM and the Kd ([2]; label: FAM on motif strand) was about 0.005 µM.

B2: Cen-CTCF motif strand 5hmC (dsDNA)
DNA 1: AGGCCGCCAGAGAGCGCCC
DNA 2: GGGCGCTCTCTGGCGGCCT
modifications: 5hmC motif strand
For B2, the binding signal [3] was about 4 fold lower affinity vs N2.

B3: H19 opposite C2 5mC (dsDNA)
DNA 1: GTTGCCGCGTGGTGGCAG
DNA 2: CTGCCACCACGCGGCAAC
modifications: 5mC opposite strand C2
Work on B3 yielded a Kd ([2]; label: FAM on motif strand) of 0.089 µM.

B4: Cen-CTCF motif C12 + opposite C2 5mC (dsDNA)
DNA 1: AGGCCGCCAGAGAGCGCCC
DNA 2: GGGCGCTCTCTGGCGGCCT
modifications: 5mC motif C12 and opposite C2
With B4 the Kd ([2]; label: FAM on motif strand) was 0.243 ± 0.018 µM.

B5: Cen-CTCF full methylation (dsDNA)
DNA 1: AGGCCGCCAGAGAGCGCCC
DNA 2: GGGCGCTCTCTGGCGGCCT
modifications: 5mC at C2 and C12 CpGs, both strands
For B5, the Kd ([2]; label: FAM on motif strand) was 1.07 ± 0.217 µM.

B6: H19 motif C2 5mC (dsDNA)
DNA 1: GTTGCCGCGTGGTGGCAG
DNA 2: CTGCCACCACGCGGCAAC
modifications: 5mC motif strand C2
B6 showed a Kd ([2]; label: FAM on motif strand) of 0.346 µM.

B7: Cen-CTCF motif C2 + opposite C2 5mC (dsDNA)
DNA 1: AGGCCGCCAGAGAGCGCCC
DNA 2: GGGCGCTCTCTGGCGGCCT
modifications: 5mC motif C2 and opposite C2
B7 showed a Kd ([2]; label: FAM on motif strand) of 0.799 ± 0.11 µM.

B8: Cen-CTCF full 5hmC (dsDNA)
DNA 1: AGGCCGCCAGAGAGCGCCC
DNA 2: GGGCGCTCTCTGGCGGCCT
modifications: 5hmC at CpGs, both strands
B8 gave a binding signal [3] of about 4 fold lower affinity vs N2.

B9: Cen-CTCF motif C2 + opposite C12 5mC (dsDNA)
DNA 1: AGGCCGCCAGAGAGCGCCC
DNA 2: GGGCGCTCTCTGGCGGCCT
modifications: 5mC motif C2 and opposite C12
With B9 the Kd ([2]; label: FAM on motif strand) was 0.839 ± 0.074 µM.

B10: Cen-CTCF opposite C12 5mC (dsDNA)
DNA 1: AGGCCGCCAGAGAGCGCCC
DNA 2: GGGCGCTCTCTGGCGGCCT
modifications: 5mC opposite strand C12
B10 showed a Kd ([2]; label: FAM on motif strand) of 0.077 ± 0.005 µM.

B11: Cen-CTCF motif C2+C12 5mC (dsDNA)
DNA 1: AGGCCGCCAGAGAGCGCCC
DNA 2: GGGCGCTCTCTGGCGGCCT
modifications: 5mC motif strand C2, C12
In the case of B11, the Kd ([2]; label: FAM on motif strand) is reported as 1.03 ± 0.114 µM.

B12: Cen-CTCF motif C12 5mC (dsDNA)
DNA 1: AGGCCGCCAGAGAGCGCCC
DNA 2: GGGCGCTCTCTGGCGGCCT
modifications: 5mC motif strand C12
B12 gave a Kd ([2]; label: FAM on motif strand) of 0.428 ± 0.037 µM.

B13: Cen-CTCF motif C2 5mC (dsDNA)
DNA 1: AGGCCGCCAGAGAGCGCCC
DNA 2: GGGCGCTCTCTGGCGGCCT
modifications: 5mC motif strand C2
B13 showed a Kd ([2]; label: FAM on motif strand) of 0.949 ± 0.165 µM.

B14: Cen-CTCF opposite C2 5mC (dsDNA)
DNA 1: AGGCCGCCAGAGAGCGCCC
DNA 2: GGGCGCTCTCTGGCGGCCT
modifications: 5mC opposite strand C2
B14 showed a Kd ([2]; label: FAM on motif strand) of 0.081 ± 0.005 µM.

B15: Cen-CTCF opposite C2+C12 5mC (dsDNA)
DNA 1: AGGCCGCCAGAGAGCGCCC
DNA 2: GGGCGCTCTCTGGCGGCCT
modifications: 5mC opposite strand C2, C12
B15 showed a Kd ([2]; label: FAM on motif strand) of 0.037 ± 0.002 µM.

B16: H19 motif strand 5hmC (dsDNA)
DNA 1: GTTGCCGCGTGGTGGCAG
DNA 2: CTGCCACCACGCGGCAAC
modifications: 5hmC motif strand C2
Work on B16 yielded a binding signal [4] of about 2 fold lower affinity vs N3.

B17: H19 full methylation (dsDNA)
DNA 1: GTTGCCGCGTGGTGGCAG
DNA 2: CTGCCACCACGCGGCAAC
modifications: 5mC C2 both strands
Work on B17 yielded a Kd ([2]; label: FAM on motif strand) of 0.294 µM.

B18: Cen-CTCF motif C12 + opposite C12 5mC (dsDNA)
DNA 1: AGGCCGCCAGAGAGCGCCC
DNA 2: GGGCGCTCTCTGGCGGCCT
modifications: 5mC motif C12 and opposite C12
B18 showed a Kd ([2]; label: FAM on motif strand) of 0.303 ± 0.028 µM.

B19: H19 unmethylated (dsDNA)
DNA 1: GTTGCCGCGTGGTGGCAG
DNA 2: CTGCCACCACGCGGCAAC
With B19 the Kd [1] was about 0.2 µM and the Kd ([2]; label: FAM on motif strand) was 0.149 µM and ~0.2 µM.

B20: Negative control (dsDNA)
DNA 1: AAGACGATTCTGGATTGTA
DNA 2: TACAATCCAGAATCGTCTT
B20 gave a Kd ([2]; label: FAM) of about 1 µM.

B21: H19 full 5hmC (dsDNA)
DNA 1: GTTGCCGCGTGGTGGCAG
DNA 2: CTGCCACCACGCGGCAAC
modifications: 5hmC C2 both strands
For B21, the binding signal [4] was about 2 fold lower affinity vs N3.

B22: Cen-CTCF unmethylated (dsDNA)
DNA 1: AGGCCGCCAGAGAGCGCCC
DNA 2: GGGCGCTCTCTGGCGGCCT
For B22, the Kd [1] was about 0.2 µM and the Kd ([2]; label: FAM on motif strand) was 0.163 µM and ~0.2 µM.
